Molecular target: human serum albumin (HSA) (human) (UniProt P02768)
Assay: HSA binding class, Table 23

Question: With “ABD L64G/I65A/V71A (from UniProt P19909 254-299)” as the substance, how does the HSA binding read?
Answer: < 0.1

Reference: patent publication US20200095333A1
